According to the supplement of paper PMC10724198:
± gives the standard deviation of the averaged measurements.
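Note: PSI is a weighted mean of sequencing reads over stability bins, variants kept only with over 10 reads, mCherry proximal and sfGFP distal, peptide attached via GGGS linker.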

What follows are sequences tested on Saccharomyces cerevisiae (assay: protein stability index of tFT-peptide fusion (C-terminal peptide) (PSI (0-1 scale)); higher = more stable (slower turnover)). Conditions: genetic background: das1 deletion; temperature: 30 C.
Procedure: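 MPS profiling in S. cerevisiae of the tFT-X12 degron library: putative degron peptides plus stable controls, 12 aa, fused to the C-terminus of a sfGFP-mCherry timer. Cells are FACS-sorted into 8 mCherry/sfGFP bins and deep-sequenced. PSI runs from 0 (unstable) to 1 (stable). Backgrounds are wild type, das1Δ and doa10Δ at 30 °C, and wild type, das1Δ, cdc34-1 and cdc53-1 at 37 °C; 2-3 technical replicates each.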
In the case of FVFFRFSLLFFF, the protein stability index is reported as 0.331 ± 0.029.
Work on FVSVAGFIVVVV yielded a protein stability index of 0.293 ± 0.048.
FVVGFVCSMVWG gave a protein stability index of 0.0889 ± 0.026.
In the case of FVVHPARYYLVL, the protein stability index is reported as 0.595 ± 0.023.
For FVVSCLSWVFLF, the protein stability index was 0.434 ± 0.032.
FVVWKDVLVMVR gave a protein stability index of 0.2 ± 0.032.
FWCVFVFFVCVG gave a protein stability index of 0.258 ± 0.028.
For FWGRAGVWRLKG, the protein stability index was 0.651 ± 0.021.
For FWSARAVVWWCW, the protein stability index was 0.445 ± 0.021.
For FYFRSSFFTICF, the protein stability index was 0.365 ± 0.033.
FYPLPASIPDFA showed a protein stability index of 0.67 ± 0.017.
With FYSLVQAWSKAP the protein stability index was 0.648 ± 0.012.
Work on GCGWVFWVVDWG yielded a protein stability index of 0.402 ± 0.028.
GCVMSVCSLAVS gave a protein stability index of 0.45 ± 0.027.
GCYWPKTLGILC was tested, and the protein stability index was 0.408 ± 0.021.
For GGFLLRGLFLFL, the protein stability index was 0.55 ± 0.024.
GGHGGRRRKGVG was tested, and the protein stability index was 0.414 ± 0.019.
With GGMVRSCLWCFV the protein stability index was 0.6 ± 0.011.
Sequence GGSHVWKFYRNF has a protein stability index of 0.662 ± 0.031.
GGVFYVFFVFVG was tested, and the protein stability index was 0.246 ± 0.024.
GGVVAACRGGIG showed a protein stability index of 0.351 ± 0.017.
With GGVWSAFAVWVC the protein stability index was 0.288 ± 0.025.
GGWGSSLGVWVG gave a protein stability index of 0.644 ± 0.018.
GIANHAMVIVVL showed a protein stability index of 0.322 ± 0.037.
In the case of GIPVRRLLFLVA, the protein stability index is reported as 0.335 ± 0.033.
GKWVWSSFVWFG showed a protein stability index of 0.509 ± 0.023.
In the case of GLFCCFLCLSVF, the protein stability index is reported as 0.241 ± 0.041.
GLFVGCWVFLVL showed a protein stability index of 0.307 ± 0.044.
GLIICRRCLWCC gave a protein stability index of 0.36 ± 0.031.
With GLLSLSGLRWFC the protein stability index was 0.659 ± 0.021.
Work on GLSWRLVWVVII yielded a protein stability index of 0.132 ± 0.02.
GMNGLFFIAMLG gave a protein stability index of 0.514 ± 0.018.
For GRLVPVILLKLV, the protein stability index was 0.441 ± 0.031.
For GRRPVVDFLPCL, the protein stability index was 0.697 ± 0.029.
Sequence GSITFFKMVQSG has a protein stability index of 0.622 ± 0.021.
Work on GSLPERPLRYVC yielded a protein stability index of 0.651 ± 0.017.
With GSRRYYFTWVYQ the protein stability index was 0.655 ± 0.019.
GTEFSNVITYLV was tested, and the protein stability index was 0.6288 ± 0.003.
Work on GTLVFTYLVLRC yielded a protein stability index of 0.197 ± 0.02.
GTRAGNPDRQRS was tested, and the protein stability index was 0.638 ± 0.034.
With GVRAGVRRAGVG the protein stability index was 0.399 ± 0.0055.
GVRRRQLIWSVC showed a protein stability index of 0.468 ± 0.024.
With GVVCWLVVTGFL the protein stability index was 0.286 ± 0.058.
With GVVVGVLLVCGW the protein stability index was 0.28 ± 0.037.
Sequence HCNRLIFWYKCT has a protein stability index of 0.656 ± 0.052.
HDLRRRVVSVMV was tested, and the protein stability index was 0.337 ± 0.025.
With HFLRYCSWFGLL the protein stability index was 0.6558 ± 0.0024.
HNLIRKHAKESS showed a protein stability index of 0.641 ± 0.034.
In the case of HPLYWRCVVVLN, the protein stability index is reported as 0.211 ± 0.026.
Work on HSPPVPFPPPTS yielded a protein stability index of 0.651 ± 0.034.
HVRLRFQPVLFV was tested, and the protein stability index was 0.404 ± 0.029.
HVSVIRRGICCA gave a protein stability index of 0.271 ± 0.026.
ICQLLKFPLFWC gave a protein stability index of 0.521 ± 0.024.
For ICSRCLVTVLSC, the protein stability index was 0.296 ± 0.037.
Sequence ICWVSLYFSMLV has a protein stability index of 0.373 ± 0.018.
IFAWPFSATIPW was tested, and the protein stability index was 0.696 ± 0.012.
IFFYPFLIFCFV was tested, and the protein stability index was 0.267 ± 0.027.
In the case of IFVLLSYYPLFV, the protein stability index is reported as 0.265 ± 0.019.
IGSARIKLLCYH gave a protein stability index of 0.592 ± 0.017.
ILHRRCGLLLQI showed a protein stability index of 0.447 ± 0.015.

Same assay, conditions: genetic background: das1 deletion; temperature: 37 C
FVFFRFSLLFFF was tested, and the protein stability index was 0.449 ± 0.0046.
Work on FVSVAGFIVVVV yielded a protein stability index of 0.5341 ± 0.0027.
Sequence FVVGFVCSMVWG has a protein stability index of 0.252 ± 0.0045.
Sequence FVVHPARYYLVL has a protein stability index of 0.664 ± 0.017.
Sequence FVVSCLSWVFLF has a protein stability index of 0.5418 ± 0.004.
FVVWKDVLVMVR gave a protein stability index of 0.286 ± 0.0095.
In the case of FWCVFVFFVCVG, the protein stability index is reported as 0.399 ± 0.013.
For FWGRAGVWRLKG, the protein stability index was 0.7821 ± 0.0066.
FWSARAVVWWCW was tested, and the protein stability index was 0.567 ± 0.011.
FYFRSSFFTICF gave a protein stability index of 0.46 ± 0.0018.
Work on FYPLPASIPDFA yielded a protein stability index of 0.74197 ± 5.2e-05.
FYSLVQAWSKAP gave a protein stability index of 0.727 ± 0.021.
In the case of GCGWVFWVVDWG, the protein stability index is reported as 0.563 ± 0.0075.
In the case of GCVMSVCSLAVS, the protein stability index is reported as 0.5659 ± 0.0049.
For GCYWPKTLGILC, the protein stability index was 0.568 ± 0.0092.
GGFLLRGLFLFL was tested, and the protein stability index was 0.6623 ± 0.0034.
Work on GGHGGRRRKGVG yielded a protein stability index of 0.435 ± 0.0098.
Work on GGMVRSCLWCFV yielded a protein stability index of 0.754 ± 0.029.
GGSHVWKFYRNF was tested, and the protein stability index was 0.767 ± 0.034.
In the case of GGVFYVFFVFVG, the protein stability index is reported as 0.425 ± 0.013.
GGVVAACRGGIG gave a protein stability index of 0.394 ± 0.0076.
Sequence GGVWSAFAVWVC has a protein stability index of 0.446 ± 0.0074.
GGWGSSLGVWVG gave a protein stability index of 0.7674 ± 0.0045.
GIANHAMVIVVL was tested, and the protein stability index was 0.508 ± 0.0078.
For GIPVRRLLFLVA, the protein stability index was 0.5019 ± 0.0023.
In the case of GKWVWSSFVWFG, the protein stability index is reported as 0.674 ± 0.03.
Work on GLFCCFLCLSVF yielded a protein stability index of 0.343 ± 0.015.
GLFVGCWVFLVL was tested, and the protein stability index was 0.525 ± 0.012.
Sequence GLIICRRCLWCC has a protein stability index of 0.5909 ± 0.00095.
GLLSLSGLRWFC showed a protein stability index of 0.763 ± 0.022.
In the case of GLSWRLVWVVII, the protein stability index is reported as 0.189 ± 0.0048.
Sequence GMNGLFFIAMLG has a protein stability index of 0.642 ± 0.035.
GRLVPVILLKLV was tested, and the protein stability index was 0.5625 ± 0.00087.
With GRRPVVDFLPCL the protein stability index was 0.745 ± 0.009.
Sequence GSITFFKMVQSG has a protein stability index of 0.744 ± 0.012.
GSLPERPLRYVC showed a protein stability index of 0.7239 ± 0.0021.
GSRRYYFTWVYQ showed a protein stability index of 0.722 ± 0.019.
In the case of GTEFSNVITYLV, the protein stability index is reported as 0.775 ± 0.021.
GTLVFTYLVLRC was tested, and the protein stability index was 0.252 ± 0.032.
For GTRAGNPDRQRS, the protein stability index was 0.714 ± 0.025.
GVRAGVRRAGVG gave a protein stability index of 0.414 ± 0.014.
GVRRRQLIWSVC gave a protein stability index of 0.656 ± 0.0066.
In the case of GVVCWLVVTGFL, the protein stability index is reported as 0.524 ± 0.0095.
GVVVGVLLVCGW showed a protein stability index of 0.489 ± 0.0051.
In the case of HCNRLIFWYKCT, the protein stability index is reported as 0.723 ± 0.035.
Sequence HDLRRRVVSVMV has a protein stability index of 0.55 ± 0.022.
HFLRYCSWFGLL showed a protein stability index of 0.781 ± 0.013.
Work on HNLIRKHAKESS yielded a protein stability index of 0.699 ± 0.015.
In the case of HPLYWRCVVVLN, the protein stability index is reported as 0.3733 ± 0.00077.
In the case of HSPPVPFPPPTS, the protein stability index is reported as 0.72 ± 0.0074.
For HVRLRFQPVLFV, the protein stability index was 0.5487 ± 0.0044.
Sequence HVSVIRRGICCA has a protein stability index of 0.398 ± 0.0092.
Work on ICQLLKFPLFWC yielded a protein stability index of 0.7207 ± 0.0058.
For ICSRCLVTVLSC, the protein stability index was 0.514 ± 0.0071.
ICWVSLYFSMLV showed a protein stability index of 0.5069 ± 0.0045.
IFAWPFSATIPW gave a protein stability index of 0.80758 ± 0.00033.
For IFFYPFLIFCFV, the protein stability index was 0.396 ± 0.019.
For IFVLLSYYPLFV, the protein stability index was 0.422 ± 0.012.
IGSARIKLLCYH gave a protein stability index of 0.7434 ± 0.0024.
In the case of ILHRRCGLLLQI, the protein stability index is reported as 0.538 ± 0.017.
